According to patent publication US20240043505A1 (UNIVERSITY OF PITTSBURGH OF THE COMMONWEALTH SYSTEM OF …, published 2024):
Where a chain is given by its changes, count along the chain named.

B1: Nb6 (VHH)
VHH: HVQLVESGGGLVQAGGSLRLSCAASGRTFSTHATGWFRQAPGKEREFLATSVWLDDISRDSTYYAESVKGRFSISRDNAKDTVYLQMNSLKPEDTAVYYCAVKQRVGPGIMSAPTYDYWGQGTQVTVSS
B2: Nb58 (VHH)
VHH: QVQLVESGGGLVQAGGSLRLSCAASGRDFSSTVMGWFRQAPGKERELVAWMTVTYDITYYADSVKGRFTISKDNAKNTVYLQANSLKPDDTAVYYCASGALRVGSFSPDYWGQGTQVTVSS
B3: Nb93 (VHH)
VHH: EVQLVESGGGLVQPGGSLRLSCAASGFTFSSYAMSWVRQAPGKGREWVAGITPGSGTFYADSVKGRFTISRDNAKNTLSLEINSLKPEDTALYYCAKCRQEFSWDFSSRDPDDFDYWGQGTQVTVSS
B4: Nb96 (VHH)
VHH: HVQLVESGGGLVQAGDSLRLSCAASGRDFSSYAMGWFRQAPGKEREFVGVISSGDVGTFYEDSVKGRFTISRDDAKNTVDLQMNSLKPEDTAVYYCAAALYVTSTRGSYAYWGQGTQVTVSS
B5: Nb94 (VHH)
VHH: QVQLVESGGGLVQAGGSLRLSCTASGGTFRSFTMAWFRQAPGKEREFVATLSWTGVGTYYADSVKGRFTISRDIAKNTVYLEMNSLIPEDTAVYYCAASPYTYSLLSRTGDYGYWGQGTQVTVSS
B6: Nb18 (VHH)
VHH: DVQLVESGGGLVQAGGSLRLSCAASGRTFSSYNVGWFRQAPGKEREFVAFIRWSGTSTYYADSVKGRFTISRDNAKNTVYLQMNSLKPEDTAVYYCAATSRTMIHTSQAMPINWDYWGQGTQVTVSS
B7: Nb100 (VHH)
VHH: B6 VHH with D1E, R27L, V34M, N74T, P88L, A109T, P111R
B8: Nb84 (VHH)
VHH: B6 VHH with N33S, V34M, E89D, T99S, I104N, H105T, T106I, A109T, P111R
B9: Nb42 (VHH)
VHH: HVQLVESGGGLVQAGESLRLSCVASGSIFSINAMGWFRQAPGKQRELVASISNIGTTIYAESVKGRFTISRDNAKNTADLQMNSLKPEDTAIYYCNLRQGCSYNGCDEYWGQGTQVTVSS
B10: Nb46 (VHH)
VHH: QVQLVESGGGLVQAGGSLRLSCAVSGSTLGINAIGWYRQPPGKQRELVASISSLGTTLYAESVKGRFAISRDNAKNTGYLQMNSLKPDDTAVYYCNMRTPYMRDYWGQGTQVTVSS
B11: Nb63 (VHH)
VHH: QVQLVESGGGLVQAGGSLRLSCVASGSGFEPNAMGWYRQAPGKQRELVAGITSGGNANYADSVKGRFTISRDNVKNTVYLQMNSLKPEDTAVYYCQGPACSGSGCRNYWGQGTQVTVSS
B12: Nb12 (VHH)
VHH: HVQLVESGGGLVQAGGSLRLTCAASGGTFSTSTMDMGWFRQAPGKEREFVAVDSWNDGRAYYADSVKGRFTISRDSAKTTLYLQMNSLKPEDTAVYYCAARTERGVYDYWGRGTQVTVSS
B13: Nb10 (VHH)
VHH: DVQLVESGGGLVQAGGSLKLSCTASESTFNFNHIDWYRQAPGKQRESVAVITNTDVTNYADSVKGRFTISRDNAKNTVYLQMNSLKPEDTAVYLCNAWRFGPTGVKVDYWGQGTQVTVSS
B14: Nb76 (VHH)
VHH: DVQLVESGGGLVQAGGSLRLSCAVSGRTFSISTMGWFRQAPGKERLFVAGITWHDGSTNYADSVKGRFTISRDNAKNTVYLQMNSLKPEDTALYYCAARKSINYVQEYDYWGRGTQVTVSS
B15: Nb60 (VHH)
VHH: HVQLVESGGGLVQAGDSLRLSCAASERTNINYAMGWFRQAPGKERDFVAAIGWNGSIIKYAESVKGRFTISRDDAKNTVSLQMNSLKPEDTAVYYCAARIGSIANLQPREYEFAYWGQGTQVTVSS
B16: Nb80 (VHH)
VHH: HVQLVESGGGLVQPGGSLRLSCAASGNFFLINVMSWWRQAPGNEHELHELVATITSDGRTNYGDAVQGRFTISRDNAKNTLYLQMNSLKPEDTAVYYCYAQGQGNREYWGQGTQVTVSS
B17: Nb15 (VHH)
VHH: EVQLVESGGGLVAAGGSLRLSCVPSTNIFSANAMGWYRQAPGKQRELVASITSGGNTNYADSVKGRFTISRDNADTVILQMNSLKPEDTAVYYCKGTAYSTTYNSVRDYWGQGTQVTVSS
B18: Nb62 (VHH)
VHH: HVQLVESGGGLVQAGGSLRLTCAASGRTFSSSTMDMGWFRQAPGKEREFVAVDAWNDGRTYYADSVKGRFTISRDNAKNTLYLQMNSLKPGDTAVYYCHAVDVSVGGDYWGQGTQVTVSS
B19: Nb37 (VHH)
VHH: QVQLVESGGGLVQTGGSLRLSCAASGRTFSNYVMGWFRQAPGKEREFVSSIEWNSENTFYANSVKGRFTISRDNAKNTVYLQMNSLKAEDTAVYYCAADRGSSYYYTRASEYTYWGQGTQVTVSS
B20: Nb3 (VHH)
VHH: HVQLVESGGGLVQAGGSLRLSCVASGSGFEPNAMGWYRQAPGKQRELVAGITSGGNTNYADSVKGRFTISRDNVKNTVYLQMNSLKPEDTAVYYCNAVAPRINPRGSPTNYWGQGTQVTVSS
B21: Nb4 (VHH)
VHH: B20 VHH with H1Q, T57A, A99G, I102F
B22: Nb91 (VHH)
VHH: HVQLVESGGGLVQPGGSLRLSCAASGLTLNDYAIGWFRQAPGKEREGVSCISSSDGTTYYADSVKGRFTISRDNAKNTVYLQMNSLKPEDTAVYYCATDIAPFYCSWPLRTRLVEYWGQGTQVTVSS
B23: Nb68 (VHH)
VHH: QVQLVESGGGLVQAGGSLRLSCAASGGTLRSYNMGWFRQGPGKEREFVAAISWTGLGTYYGDSVKGRFTISRDVIKNTLYLQMDSLKPEDTAIYYCAADSSTSRLHSAGSDYRYWGQGTQVTVSS
B24: Nb2 (VHH)
VHH: QVQLVESGGGLVQAGGSLRLSCAASGRTFSIYNMGWFRQAPGKEREFVIHMNWSNGNTATAASVKDRFTISRDNAKNTVYLQMSSLKPEDTAVYYCHATTNDYDYWGQGTQVTVSS
B25: Nb24 (VHH)
VHH: QVQLVESGGGLVQAGGSLRLTCAASGGTFSTSTMDMGWFRQAPGKEREFVALDSWNGGRTYYADSVKGRFTISRDNAKNTLYLQMNSLKPEDTAVYYCAADTYSNYEKDDSWGYWGQGTQVTVSS
B26: Nb29 (VHH)
VHH: B25 VHH with Q1H, L52V, G57D, T60A, D101E, D109A, D110Y
B27: Nb26 (VHH)
VHH: B25 VHH with Q1H, G27R, T31I, L52A, S54A, G57D, A99T, E107K
B28: Nb32 (VHH)
VHH: DVQLVESGGGLVQAGGSLRLSCAASGRTFSSDTMDMGWFRQAPGKEREFVALHSWNGGKTYYADSVKGRFTISRDNAKNTLYLQMNNLKPEDTAVYYCAAETYTLYEKDSSWGYWGQGTQVTVSS
B29: Nb55 (VHH)
VHH: DVQLVESGGGLVQAGGSLRLSCAASGRTFGSTMAWFRQAPGKERDFVAAITWSADRISYADSVKGRFTISRDNDKNIVHLQMNSLKPEDTAVYVCAARASSNTYDDPRSFAFWGQGTQVTVSS
B30: Nb43 (VHH)
VHH: EVQLVESGGGLVQAGGSLRLTCAASGRTFSSSTMDMGWFRQAPGKEREFVAVDAWNDGRTYYADSVKGRFTISRDNAKNTLYLQMNSLKPEDTAIYYCNLRQGCSYNGCDEYWGQGTQVTVSS
B31: Nb39 (VHH)
VHH: QVQLVESGGGLVQAGGSLRLSCAASGRTFRFSAIDWYRQAPGQQREFVASISTSGRISYGHFVKGRFTISRDNAKNTMYLQMNSLKPEDTAVYYCHLAQPDVFGGGDYWGQGTQVTVSS
B32: Nb90 (VHH)
VHH: HVQLVESGGGLVQAGGSLRLSCAVSGRTVSSYVMGWFRQAPGKEREFVAGIGRTGMTITADSVKGRFTISRDNAKNLVYLQMNSLKSEDTAVYWCAAGVRDFAPRIDSYDYWGQGTQVTVSS
B33: Nb102 (VHH)
VHH: QVQLVESGGGLVQAGGSLRLSCAASGRTFSNSHMGWFRQAPGKEREFVAVISRSGGSTLYADSVKGRFTISRDNAKNTVYLQMNSLKPEDTAVYYCAASRTAGLTSNRSLYDYWGRGTQVTVSS
B34: Nb74 (VHH)
VHH: HVQLVESGGGLVQAGGSLRLSCAASGRTFSSHAMAWFRQAPGKEREFVAGISWSGPYYVDSVKGRFTISTDNAKNTVYLQMNSLTPEDTAVYYCASSRGPNLYPHIGDVEYWGQGTQVTVSS
B35: Nb92 (VHH)
VHH: HVQLVESGGGLVQAGGSLRLSCAASGRTFSAYGMGWFRQAPGKEREFVAGIARSGSEYYGDSVKGRFTISRDNAKNTVYLQMASLKAEDTGVYYCAADPTILYHALSQRTQNYRYWGPGTQVTVSS
B36: Nb41 (VHH)
VHH: DVQLVESGGGLVQAGGSLRLSCAASGFTFSNYVMYWGRQAPGKGREWVSGIDSDGSDTAYASSVKGRFTISRDNAKKTLYLQMNDLKPEDTALYYCVKSKDRYGSPWTRSEFEDYWGQGTQVTVSS

target: SARS-CoV-2 spike receptor-binding domain (RBD) (SARS-CoV-2, UniProt P0DTC2 319-541); assay: indirect ELISA, RBD coated on plate, 4PL fit

Q: B1 was tested. Which ELISA affinity did it give?
A: 0.57 nM

Q: B2 was tested. Which ELISA affinity did it give?
A: 2.68 nM

Q: For B3, which ELISA affinity is on record?
A: 1.15 nM

Q: B4 was tested. Which ELISA affinity did it give?
A: 0.04 nM

Q: For B5, which ELISA affinity is on record?
A: 0.5 nM

Q: How did the ELISA affinity turn out when B6 was run?
A: 0.57 nM

Q: With B7 as the binder, how does the ELISA affinity read?
A: 1.04 nM

Q: How did the ELISA affinity turn out when B8 was run?
A: 0.53 nM

Q: With B9 as the binder, how does the ELISA affinity read?
A: 0.66 nM

Q: Which ELISA affinity does the source give for B10 here?
A: 25.9 nM

Q: For B11, which ELISA affinity is on record?
A: 0.84 nM

Q: B12 was tested. Which ELISA affinity did it give?
A: 539 nM

Q: For B13, which ELISA affinity is on record?
A: 0.24 nM

Q: B14 was tested. Which ELISA affinity did it give?
A: 0.17 nM

Q: How did the ELISA affinity turn out when B15 was run?
A: 138 nM

Q: Which ELISA affinity does the source give for B16 here?
A: 5.09 nM

Q: B17 was tested. Which ELISA affinity did it give?
A: 0.47 nM

Q: With B18 as the binder, how does the ELISA affinity read?
A: 85.7 nM

Q: Which ELISA affinity does the source give for B19 here?
A: 0.38 nM

Q: For B20, which ELISA affinity is on record?
A: 0.48 nM

Q: How did the ELISA affinity turn out when B21 was run?
A: 0.67 nM

Q: How did the ELISA affinity turn out when B22 was run?
A: 1.28 nM

Q: For B23, which ELISA affinity is on record?
A: 6.11 nM

Q: For B24, which ELISA affinity is on record?
A: 4.82 nM

Q: For B25, which ELISA affinity is on record?
A: 0.77 nM

Q: Which ELISA affinity does the source give for B26 here?
A: 1.25 nM

Q: How did the ELISA affinity turn out when B27 was run?
A: 0.92 nM

Q: Which ELISA affinity does the source give for B28 here?
A: 2.17 nM

Q: B29 was tested. Which ELISA affinity did it give?
A: 2.24 nM

Q: How did the ELISA affinity turn out when B30 was run?
A: 664 nM

Q: Which ELISA affinity does the source give for B31 here?
A: 1.49 nM

Q: Which ELISA affinity does the source give for B32 here?
A: 4.03 nM

Q: For B33, which ELISA affinity is on record?
A: 28.4 nM

Q: With B34 as the binder, how does the ELISA affinity read?
A: 67.1 nM

Q: Which ELISA affinity does the source give for B35 here?
A: 4.92 nM

Q: B36 was tested. Which ELISA affinity did it give?
A: 0.2 nM
